The target of assay [1] is tubby-N (N-terminus of mouse tubby, 1M-242P), GST-free (mouse) (UniProt P50586). Nature of the assay: clonal phage on immobilized tubby-N, plaque assay.
The target of assay [2] is FLAG-tubby-F (full-length mouse tubby with N-terminal FLAG tag) (mouse) (UniProt P50586). Nature of the assay: clonal phage on immobilized FLAG-tubby-F, plaque assay.
Sequence of FLAG-tubby-F (full-length mouse tubby with N-terminal FLAG tag) (mouse) (P50586 other isoform, or with tags, fused parts or gaps): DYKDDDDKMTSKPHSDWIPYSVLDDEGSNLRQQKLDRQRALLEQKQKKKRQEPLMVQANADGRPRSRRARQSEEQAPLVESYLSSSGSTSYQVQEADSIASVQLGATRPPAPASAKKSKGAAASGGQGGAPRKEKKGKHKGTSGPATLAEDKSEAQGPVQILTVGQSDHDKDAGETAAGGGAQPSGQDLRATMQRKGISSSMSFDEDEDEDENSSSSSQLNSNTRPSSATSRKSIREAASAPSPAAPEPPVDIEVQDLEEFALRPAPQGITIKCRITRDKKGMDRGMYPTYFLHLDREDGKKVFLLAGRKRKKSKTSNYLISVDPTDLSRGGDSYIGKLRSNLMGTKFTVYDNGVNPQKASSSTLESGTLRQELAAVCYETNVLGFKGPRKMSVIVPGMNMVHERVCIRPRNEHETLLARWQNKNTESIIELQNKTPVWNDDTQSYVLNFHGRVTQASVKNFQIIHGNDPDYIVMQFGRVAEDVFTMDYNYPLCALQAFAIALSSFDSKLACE

Sequence of tubby-N (N-terminus of mouse tubby, 1M-242P), GST-free (mouse) (P50586 1-242): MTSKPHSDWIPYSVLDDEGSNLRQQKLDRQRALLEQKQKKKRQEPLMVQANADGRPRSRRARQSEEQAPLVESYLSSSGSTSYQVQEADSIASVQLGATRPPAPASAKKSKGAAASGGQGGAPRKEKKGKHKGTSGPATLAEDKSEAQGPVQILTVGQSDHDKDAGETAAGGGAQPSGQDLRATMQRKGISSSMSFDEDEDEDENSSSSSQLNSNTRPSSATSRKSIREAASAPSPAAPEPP

B1: Regulated endocrine-specific protein 18 (Resp18) 68V-134K, phage clone (protein, mouse, UniProt P47939 68-134, looked up)
chain: VPEGMFWADDIAYELMTKKVEHLSRLHPQYPCRKDMKAVSPTANAGVRSKQEEKLQLLSPQKSPTVK
Turning to B1, in assay [1], the Binding to tubby-N (binding specificity of clonal phage vs. control phage) was 10.3 X (fold). For the same molecule, the Binding to tubby-F (binding specificity to FLAG-tubby-F vs. to GFP-FLAG) in assay [2] was 4.8 X (fold).
